Experimental data reported in doi:10.1101/2024.09.06.611644 (bioRxiv, 2024).

Biological target: wild-type AC fused to GFP (AC-GFP) (GFP moiety: Aequorea victoria …, UniProt P42212 = GFP)
Assay: two-hybrid

B1: CaM-V9A fusion expressed from pK1Cam-V9A or pK2Cam-V9A (VHH)
VHH: DVQLQESGGGSVQAGGSLRLSCAASGDTFSSYSMAWFRQAPGKECELVSNILRDGTTTYAGSVKGRFTISRDDAKNTVYLQMVNLKSEDTARYYCAADSGTQLGYVGAVGLSCLDYVMDYWGKGTQVTVSS
  binding result: binds
